Starred links: 1 amine or outer side, 2 acyl side, 3 side chain; linkers in the order of their positions; H or OH if unused. Positions of bridges follow the written chain, without caps; N, C: chain ends. Non-standard residues stand in square brackets, D forms with d. Groups on a side chain read outwards from the residue. Primed or numbered codes have the meaning given here. *: point of attachment. APAc″ = 2-(4-(amino)piperidin-1-yl)acetic acid, NC1CCN(CC(=O)*)CC1; DOTA = O=C(O)CN1CCN(CC(=O)O)CCN(CC(=O)*)CCN(CC(=O)O)CC1; Ttds(3) = NCCCOCCOCCOCCCNC(=O)CCC(=O)*; mXylylene = c1cc(C[*:1])cc(C[*:2])c1; 3Amb = NCc1cccc(C(=O)O)c1; dNMeA = CN[C@H](C)C(=O)O; 4Amc = not defined here; AEEA = NCCOCCOCC(=O)O; Ttds″ = Ttds spacer; Sar = CNCC(=O)O
B1: 3BP-3427 (peptide)
peptide: Ac-K(DOTA)VYCE[dP]DWLTWAC-NH2
modifications: linker 4-13 via mXylylene
SMILES: CC(=O)N[C@@H](CCCCNC(=O)CN1CCN(CC(=O)O)CCN(CC(=O)O)CCN(CC(=O)O)CC1)C(=O)N[C@H](C(=O)N[C@@H](Cc1ccc(O)cc1)C(=O)N[C@H]1CSCc2cccc(c2)CSC[C@@H](C(N)=O)NC(=O)[C@H](C)NC(=O)[C@H](Cc2c[nH]c3ccccc23)NC(=O)[C@H]([C@@H](C)O)NC(=O)[C@H](CC(C)C)NC(=O)[C@H](Cc2c[nH]c3ccccc23)NC(=O)[C@H](CC(=O)O)NC(=O)[C@H]2CCCN2C(=O)[C@H](CCC(=O)O)NC1=O)C(C)C
notes: also called Ac-Lys(DOTA)-Val-Tyr-[Cys(3MeBn)-Glu-pro-Asp-Trp-Leu-Thr-Trp-Ala-Cys]-NH2
B2: 3BP-3840 (peptide)
peptide: Ac-K(DOTA)VYCE[dP]DWLTWSC-NH2
modifications: linker 4-13 via 3MeBn
notes: also called Ac-Lys(DOTA)-Val-Tyr-[Cys(3MeBn)-Glu-pro-Asp-Trp-Leu-Thr-Trp-Ser-Cys]-NH2
B3: 3BP-3428 (peptide)
peptide: Ac-K([AEEA-DOTA])VYCE[dP]DWLTWAC-NH2
modifications: linker 4-13 via mXylylene
notes: also called Ac-Lys(DOTA-O2Oc)-Val-Tyr-[Cys(3MeBn)-Glu-pro-Asp-Trp-Leu-Thr-Trp-Ala-Cys]-NH2
B4: 3BP-2837 (peptide)
peptide: Ac-VYCEGDWLTWQC-NH2
modifications: linker 3-12 via mXylylene
SMILES: CC(=O)N[C@H](C(=O)N[C@@H](Cc1ccc(O)cc1)C(=O)N[C@H]1CSCc2cccc(c2)CSC[C@@H](C(N)=O)NC(=O)[C@H](CCC(N)=O)NC(=O)[C@H](Cc2c[nH]c3ccccc23)NC(=O)[C@H]([C@@H](C)O)NC(=O)[C@H](CC(C)C)NC(=O)[C@H](Cc2c[nH]c3ccccc23)NC(=O)[C@H](CC(=O)O)NC(=O)CNC(=O)[C@H](CCC(=O)O)NC1=O)C(C)C
B5: 3BP-3046 (peptide)
peptide: Ac-VYCE[dA]DWLTWQC-NH2
modifications: linker 3-12 via mXylylene
SMILES: CC(=O)N[C@H](C(=O)N[C@@H](Cc1ccc(O)cc1)C(=O)N[C@H]1CSCc2cccc(c2)CSC[C@@H](C(N)=O)NC(=O)[C@H](CCC(N)=O)NC(=O)[C@H](Cc2c[nH]c3ccccc23)NC(=O)[C@H]([C@@H](C)O)NC(=O)[C@H](CC(C)C)NC(=O)[C@H](Cc2c[nH]c3ccccc23)NC(=O)[C@H](CC(=O)O)NC(=O)[C@@H](C)NC(=O)[C@H](CCC(=O)O)NC1=O)C(C)C
notes: also called Ac-Val-Tyr-[Cys(3MeBn)-Glu-ala-Asp-Trp-Leu-Thr-Trp-Gln-Cys]-NH2
B6: 3BP-3052 (peptide)
peptide: Ac-VYCAGDWLTWQC-NH2
modifications: linker 3-12 via mXylylene
SMILES: CC(=O)N[C@H](C(=O)N[C@@H](Cc1ccc(O)cc1)C(=O)N[C@H]1CSCc2cccc(c2)CSC[C@@H](C(N)=O)NC(=O)[C@H](CCC(N)=O)NC(=O)[C@H](Cc2c[nH]c3ccccc23)NC(=O)[C@H]([C@@H](C)O)NC(=O)[C@H](CC(C)C)NC(=O)[C@H](Cc2c[nH]c3ccccc23)NC(=O)[C@H](CC(=O)O)NC(=O)CNC(=O)[C@H](C)NC1=O)C(C)C
B7: 3BP-3058 (peptide)
peptide: Ac-VYCEGDWLTWAC-NH2
modifications: linker 3-12 via mXylylene
SMILES: CC(=O)N[C@H](C(=O)N[C@@H](Cc1ccc(O)cc1)C(=O)N[C@H]1CSCc2cccc(c2)CSC[C@@H](C(N)=O)NC(=O)[C@H](C)NC(=O)[C@H](Cc2c[nH]c3ccccc23)NC(=O)[C@H]([C@@H](C)O)NC(=O)[C@H](CC(C)C)NC(=O)[C@H](Cc2c[nH]c3ccccc23)NC(=O)[C@H](CC(=O)O)NC(=O)CNC(=O)[C@H](CCC(=O)O)NC1=O)C(C)C
B8: 3BP-3270 (peptide)
peptide: {DOTA-Ttds(3)}-VYCE[dA]DWLTWQC-NH2
modifications: linker 3-12 via mXylylene
notes: also called DOTA-Ttds-Val-Tyr-[Cys(3MeBn)-Glu-ala-Asp-Trp-Leu-Thr-Trp-Gln-Cys]-NH2
B9: 3BP-3272 (peptide)
peptide: {DOTA-Ttds″}-VYCEGDWLTWAC-NH2
modifications: linker 3-12 via mXylylene; not fully specified
B10: 3BP-3279 (peptide)
peptide: {DOTA-Ttds″}-VYCE[dA]DWLTWAC-NH2
modifications: linker 3-12 via mXylylene; not fully specified
notes: also called DOTA-Ttds-Val-Tyr-[Cys(3MeBn)-Glu-ala-Asp-Trp-Leu-Thr-Trp-Ala-Cys]-NH2
B11: 3BP-3280 (peptide)
peptide: Ac-VYCE[dA]DWLTWAC-NH2
modifications: linker 3-12 via mXylylene
SMILES: CC(=O)N[C@H](C(=O)N[C@@H](Cc1ccc(O)cc1)C(=O)N[C@H]1CSCc2cccc(c2)CSC[C@@H](C(N)=O)NC(=O)[C@H](C)NC(=O)[C@H](Cc2c[nH]c3ccccc23)NC(=O)[C@H]([C@@H](C)O)NC(=O)[C@H](CC(C)C)NC(=O)[C@H](Cc2c[nH]c3ccccc23)NC(=O)[C@H](CC(=O)O)NC(=O)[C@@H](C)NC(=O)[C@H](CCC(=O)O)NC1=O)C(C)C
notes: also called Ac-Val-Tyr-[Cys(3MeBn)-Glu-ala-Asp-Trp-Leu-Thr-Trp-Ala-Cys]-NH2
B12: 3BP-3281 (peptide)
peptide: Ac-VYCE[dNMeA]DWLTWAC-NH2
modifications: linker 3-12 via mXylylene
SMILES: CC(=O)N[C@H](C(=O)N[C@@H](Cc1ccc(O)cc1)C(=O)N[C@H]1CSCc2cccc(c2)CSC[C@@H](C(N)=O)NC(=O)[C@H](C)NC(=O)[C@H](Cc2c[nH]c3ccccc23)NC(=O)[C@H]([C@@H](C)O)NC(=O)[C@H](CC(C)C)NC(=O)[C@H](Cc2c[nH]c3ccccc23)NC(=O)[C@H](CC(=O)O)NC(=O)[C@@H](C)N(C)C(=O)[C@H](CCC(=O)O)NC1=O)C(C)C
notes: also called Ac-Val-Tyr-[Cys(3MeBn)-Glu-nma-Asp-Trp-Leu-Thr-Trp-Ala-Cys]-NH2
B13: 3BP-3282 (peptide)
peptide: Ac-VYCE[dP]DWLTWAC-NH2
modifications: linker 3-12 via mXylylene
SMILES: CC(=O)N[C@H](C(=O)N[C@@H](Cc1ccc(O)cc1)C(=O)N[C@H]1CSCc2cccc(c2)CSC[C@@H](C(N)=O)NC(=O)[C@H](C)NC(=O)[C@H](Cc2c[nH]c3ccccc23)NC(=O)[C@H]([C@@H](C)O)NC(=O)[C@H](CC(C)C)NC(=O)[C@H](Cc2c[nH]c3ccccc23)NC(=O)[C@H](CC(=O)O)NC(=O)[C@H]2CCCN2C(=O)[C@H](CCC(=O)O)NC1=O)C(C)C
notes: also called Ac-Val-Tyr-[Cys(3MeBn)-Glu-pro-Asp-Trp-Leu-Thr-Trp-Ala-Cys]-NH2
B14: 3BP-3284 (peptide)
peptide: Ac-VYCE[dA]DWLTWGC-NH2
modifications: linker 3-12 via mXylylene
SMILES: CC(=O)N[C@H](C(=O)N[C@@H](Cc1ccc(O)cc1)C(=O)N[C@H]1CSCc2cccc(c2)CSC[C@@H](C(N)=O)NC(=O)CNC(=O)[C@H](Cc2c[nH]c3ccccc23)NC(=O)[C@H]([C@@H](C)O)NC(=O)[C@H](CC(C)C)NC(=O)[C@H](Cc2c[nH]c3ccccc23)NC(=O)[C@H](CC(=O)O)NC(=O)[C@@H](C)NC(=O)[C@H](CCC(=O)O)NC1=O)C(C)C
notes: also called Ac-Val-Tyr-[Cys(3MeBn)-Glu-ala-Asp-Trp-Leu-Thr-Trp-Gly-Cys]-NH2
B15: 3BP-3304 (peptide)
peptide: Ac-VYCE[Sar]DWLTWGC-NH2
modifications: linker 3-12 via mXylylene
SMILES: CC(=O)N[C@H](C(=O)N[C@@H](Cc1ccc(O)cc1)C(=O)N[C@H]1CSCc2cccc(c2)CSC[C@@H](C(N)=O)NC(=O)CNC(=O)[C@H](Cc2c[nH]c3ccccc23)NC(=O)[C@H]([C@@H](C)O)NC(=O)[C@H](CC(C)C)NC(=O)[C@H](Cc2c[nH]c3ccccc23)NC(=O)[C@H](CC(=O)O)NC(=O)CN(C)C(=O)[C@H](CCC(=O)O)NC1=O)C(C)C
notes: also called Ac-Val-Tyr-[Cys(3MeBn)-Glu-Nmg-Asp-Trp-Leu-Thr-Trp-Gly-Cys]-NH2
B16: 3BP-3307 (peptide)
peptide: Ac-VYCE[Sar]DWLGWQC-NH2
modifications: linker 3-12 via mXylylene
SMILES: CC(=O)N[C@H](C(=O)N[C@@H](Cc1ccc(O)cc1)C(=O)N[C@H]1CSCc2cccc(c2)CSC[C@@H](C(N)=O)NC(=O)[C@H](CCC(N)=O)NC(=O)[C@H](Cc2c[nH]c3ccccc23)NC(=O)CNC(=O)[C@H](CC(C)C)NC(=O)[C@H](Cc2c[nH]c3ccccc23)NC(=O)[C@H](CC(=O)O)NC(=O)CN(C)C(=O)[C@H](CCC(=O)O)NC1=O)C(C)C
notes: also called Ac-Val-Tyr-[Cys(3MeBn)-Glu-Nmg-Asp-Trp-Leu-Gly-Trp-Gln-Cys]-NH2
B17: 3BP-3313 (peptide)
peptide: Ac-VYCE[Sar]DWLTWAC-NH2
modifications: linker 3-12 via mXylylene
SMILES: CC(=O)N[C@H](C(=O)N[C@@H](Cc1ccc(O)cc1)C(=O)N[C@H]1CSCc2cccc(c2)CSC[C@@H](C(N)=O)NC(=O)[C@H](C)NC(=O)[C@H](Cc2c[nH]c3ccccc23)NC(=O)[C@H]([C@@H](C)O)NC(=O)[C@H](CC(C)C)NC(=O)[C@H](Cc2c[nH]c3ccccc23)NC(=O)[C@H](CC(=O)O)NC(=O)CN(C)C(=O)[C@H](CCC(=O)O)NC1=O)C(C)C
notes: also called Ac-Val-Tyr-[Cys(3MeBn)-Glu-Nmg-Asp-Trp-Leu-Thr-Trp-Ala-Cys]-NH2
B18: 3BP-3429 (peptide)
peptide: {DOTA-3Amb}-VYCE[dP]DWLTWAC-NH2
modifications: linker 3-12 via mXylylene
SMILES: CC(C)C[C@@H]1NC(=O)[C@H](Cc2c[nH]c3ccccc23)NC(=O)[C@H](CC(=O)O)NC(=O)[C@H]2CCCN2C(=O)[C@H](CCC(=O)O)NC(=O)[C@@H](NC(=O)[C@H](Cc2ccc(O)cc2)NC(=O)[C@@H](NC(=O)c2cccc(CNC(=O)CN3CCN(CC(=O)O)CCN(CC(=O)O)CCN(CC(=O)O)CC3)c2)C(C)C)CSCc2cccc(c2)CSC[C@@H](C(N)=O)NC(=O)[C@H](C)NC(=O)[C@H](Cc2c[nH]c3ccccc23)NC(=O)[C@H]([C@@H](C)O)NC1=O
notes: also called DOTA-Mamb-Val-Tyr-[Cys(3MeBn)-Glu-pro-Asp-Trp-Leu-Thr-Trp-Ala-Cys]-NH2
B19: 3BP-3430 (peptide)
peptide: {DOTA-4Amc}-VYCE[dP]DWLTWAC-NH2
modifications: linker 3-12 via mXylylene; reading uncertain
notes: also called DOTA-4Amc-Val-Tyr-[Cys(3MeBn)-Glu-pro-Asp-Trp-Leu-Thr-Trp-Ala-Cys]-NH2
B20: 3BP-3432 (peptide)
peptide: {DOTA-APAc″}-VYCE[dP]DWLTWAC-NH2
modifications: linker 3-12 via mXylylene
notes: also called DOTA-APAc-Val-Tyr-[Cys(3MeBn)-Glu-pro-Asp-Trp-Leu-Thr-Trp-Ala-Cys]-NH2

target: human carbonic anhydrase 9 (CAIX) (human, UniProt Q16790 38-459); assay: FACS competition on HT-29 cells against tracer 3BP-2776; pIC50 category A = pIC50 >8.0
Method: CAIX-expressing human HT-29 colorectal cancer cells (DSMZ, RRID: CVCL_0320) were cultured in McCoys's 5A modified medium (Biochrom, #F1015) including 10% fetal calf serum (FCS), 2 mM L-glutamine, 100 U/ml penicillin and 100 μg/mL streptomycin. Cells were detached with Accutase (Biolegend, #423201) and washed in FACS buffer (PBS including 1% FCS). Cells were diluted in FACS buffer to a final concentration of 500.000 cells per ml. 200 μL of the cell suspension were transferred to a u-shaped non-binding 96-well plate (Greiner) and cells were washed in ice-cold FACS buffer.
When biotinylated compounds were used an additional incubation step with 1 μg/mL APC-Streptavidin (Miltenyi; #130-106-791) in 50 μL FACS buffer for 30 minutes on ice was performed.
Cells were washed twice with ice-cold FACS buffer and analyzed in an Attune NxT flow cytometer (Thermo Fisher). Median fluorescence intensities (MFI) of the APC/Cy5-channel were calculated by Attune NxT software.

pIC50, > 8 pic50:
B1
B2
B3
B4
B5
B6
B7
B8
B9
B10
B11
B12
B13
B14
B15
B16
B17
B18
B19
B20
